These results are taken from patent US20240251767A1 (LEVERAGEN, published 2024).

Assay [1] deals with T1, Spike protein of the COVID-19 Spike-ACE2 Binding Assay Kit (Raybiotech) (SARS-CoV2, UniProt P0DTC2 319-541).
Assay [2] has as its target T1, Spike protein of the COVID-19 …. This is another data set of the same source.

Read-outs that look alike come from different tables or passages of the source.

B1: MS329_5 Nb-human Fc fusion (Fc fusion, not shown: a dimerising Fc or GST)
VH: EVQLQQSGPELVKPGASVKMSCKASGYTFTDYYIKWEKQSHGKSLEWIGDINPKNGETFYNQQFKGKATLTVDKSSSTAYMQLNSLTSEDSAVYYCARKEYGDYGYAVDYWGQGTSVTVSS
notes: also called LVGN-S3205; LVGN-53205
Turning to B1, the IC50 in assay [1] amounted to 0.4 nM; in assay [2] it was 0.397 nM.

B2: M2S521_378 Nb-human Fc fusion (Fc fusion, not shown: a dimerising Fc or GST)
VH: EVQLQQSGPELVKPGASVKISCKASGYTFTDYYMKWVKQSHGKSLEWIGDINPKNGGTNYNQKFKDKATLTVDKSSSTAYMELRSLTSEDSAVYYCARLEDGYYGYAIDYWSQGTSVTVSS
notes: also called LVGN-S231378; LVGN-S521378
In assay [1], B2 came in with an IC50 of 3.3 nM.

In general, IC50 refers to the concentration that inhibits the measured activity by half. High values mean weaker potency in that assay, low ones greater potency in that assay.
